Measurements reported in article PMC5506079, “Neodymium-140 DOTA-LM3: Evaluation of an In Vivo Generator for PET with a Non-Internalizing Vector” (Frontiers in Medicine, 2017).

Experiments:
[1] = HPLC verification of de-labeling of ^140Pr from DOTA-LM3; format: physicochemical; details: reverse-phase C-18 radio-HPLC trace vs LSC of fractions
Experimental: Samples of ^140Nd-DOTA-LM3 were injected onto a reverse-phase C-18 (Luna 3uC18(2)(n) 100 A 100 × 2 mm 3 μm, Phenomenex) column at a flow rate of 0.5 mL/min starting from 0% acetonitrile in water, and reaching 100% over a 15 min gradient. Elution was monitored with a radio detector. The entire effluent was collected in 1 min intervals (500 µL each) and quantified 4 days after collection by liquid scintillation counting on a HIDEX 300 SL spectrometer.

[2] = tested on: NCI-H727 tumor bearing mice; experiment: Small animal PET/CT tissue quantification, pre-mortem (16 h) and post-mortem; format: in vivo, female NMRI nude mice; details: for Tumor post-mortem PET signal: mean ± spread over tumors; for Tumor partial volume corrected PET signal (PVC-PET): post-mortem PET divided by S(V); for Kidney PM PET tissue signal / L. tumor PM PET tissue signal / Liver PM PET tissue signal / Lung PM PET tissue signal / Muscle PM PET tissue signal / Pancreas PM PET tissue signal / R. tumor PM PET tissue signal: post mortem scan after 16 h, 3.3–4.3 MBq i.v.
Experimental: (§1) NCI-H727 lung carcinoid cancer cells (ATCC CRL-5815, LGC Standards) were cultured in RPMI-1640 media supplemented with 10% fetal bovine serum and 1% penicillin-streptomycin (Invitrogen) at 37° C and 5% CO2. Cells in their exponential growth phase and at 80–90% confluence were harvested by trypsinization and resuspended in 1:1 media and matrigel (BD Biosciences) at 5 × 10^7 cells/mL. Subcutaneous tumors were established in female NMRI nude mice (Taconic, Denmark) by inoculation of 5 × 10^6 cells in 100 µL on each flank above the hind limbs in the subcutaneous space. All animal experiments were performed under a protocol approved by the National Animal Experiments Inspectorate of Denmark.
Longitudinal small animal PET/CT imaging (Inveon Multimodality PET/CT scanner, Siemens) was performed with NCI-H727 tumor bearing mice injected intravenously with 3.3–4.3 MBq ^140Nd-DOTA-LM3 (n = 8) or 2.7–3.1 MBq ^140Nd-chloride (n = 3) in 150 µL. Mice were anesthetized with sevoflurane (Abbott Laboratories) during injection and PET/CT imaging. PET data was acquired for 600 s in list mode at 1, 3, and 16 h after injection. The mice were sacrificed after the 16 h time-point and a PET acquisition was performed 2 h post-mortem. Images were reconstructed using a 3D maximum a posteriori algorithm with CT based attenuation correction. CT images were acquired with the following settings: 300 projections, 65 kV, 500 µA, and 400 ms exposure, and reconstructed with an isotropic voxel size of 105 µm. Image analysis was performed using the Inveon Software (Siemens). Region of interests (ROIs) were drawn manually over the tumor regions and other organs based on the CT images and the uptake of ^140Nd-DOTA-LM3 or ^140Nd-chloride quantified as % injected dose per gram tissue (%ID/g).
Throughout the text we have used a unit, %IS/g, to denote the “percent of injected annihilation signal per gram tissue”. This is in contrast to the common unit, %ID/g (percent of injected dose per gram), which is typically used to report relative radiotracer concentrations. We made the decision to change units for two reasons: first because the EC-delayed positron is not guaranteed to be emitted at the same location as the initial EC decay; and second, because the abnormally high energy of positrons emitted in the decay of ^140Pr leads to large partial volume effects which alter the relationship between the decay distribution and the annihilation distribution.
Using the partial volume correction factor S(V), as a function of ROI volume, the PET quantifications from the manuscript can be rescaled. The results are shown in table S1 compared to the ex vivo biodistribution data. […] A more complete approach to the partial volume correction may lead to better agreement for the PET and well-counter data.

[3] = tested on: NCI-H727 tumor bearing mice; experiment: Conventional ex vivo biodistribution (gamma counter); format: in vivo, female NMRI nude mice; details: for Tumor ex-vivo well counter: 16 h after injection
Experimental: as §1
Conventional ex vivo biodistribution was performed after the post-mortem scan. Tumors and organs were resected, weighted and the radioactivity was counted in a gamma counter (Wizard^2, PerkinElmer).

1,4,7,10- tetraazacyclododecane, 1,4,7- tri acetic acid, 10- acetamide N - p-Cl-Phecyclo(d-Cys-Tyr-d-4-amino-Phe(carbamoyl)-Lys-Thr-Cys)d-Tyr-NH2 (disulfide) [^140Nd-DOTA-LM3, ^140Nd reacted with the somatostatin analogue DOTA-LM3, a non-internalizing vector; the printed name is that of unlabeled DOTA-LM3]
Efficiency of release of ^140Pr from DOTA-LM3 after ^140Nd decay [1]: > 95% | Tumor post-mortem PET signal ([2]; 2.5MBq/nmol): 0.19 ±0.07 %IS/g | Tumor partial volume corrected PET signal (PVC-PET) ([2]; 2.5MBq/nmol): 1.5 ±0.4 %ID/g | Tumor post-mortem PET signal ([2]; 5MBq/nmol): 0.40 ±0.15 %IS/g | Tumor partial volume corrected PET signal (PVC-PET) ([2]; 5MBq/nmol): 3.0 ±1.0 %ID/g | Fraction of in situ produced ^140Pr washed out of the pancreas before decay ([2]; higher specific activity (5 MBq/nmol), pre- vs post-mortem PET at 16 h, n = 4, mean ± SD): 56 ± 7% | Kidney PM PET tissue signal ([2]; subject 1, 5 MBq/nmol): 1.41 %IS/g | L. tumor PM PET tissue signal ([2]; subject 1, 5 MBq/nmol): 0.38 %IS/g | Liver PM PET tissue signal ([2]; subject 1, 5 MBq/nmol): 0.21 %IS/g | Lung PM PET tissue signal ([2]; subject 1, 5 MBq/nmol): 0.06 %IS/g | Muscle PM PET tissue signal ([2]; subject 1, 5 MBq/nmol): 0.08 %IS/g | Pancreas PM PET tissue signal ([2]; subject 1, 5 MBq/nmol): 1.79 %IS/g | R. tumor PM PET tissue signal ([2]; subject 1, 5 MBq/nmol): 0.29 %IS/g | Kidney PM PET tissue signal ([2]; subject 2, 5 MBq/nmol): 1.26 %IS/g | L. tumor PM PET tissue signal ([2]; subject 2, 5 MBq/nmol): 0.35 %IS/g | Liver PM PET tissue signal ([2]; subject 2, 5 MBq/nmol): 0.17 %IS/g | Lung PM PET tissue signal ([2]; subject 2, 5 MBq/nmol): 0.08 %IS/g | Muscle PM PET tissue signal ([2]; subject 2, 5 MBq/nmol): 0.07 %IS/g | Pancreas PM PET tissue signal ([2]; subject 2, 5 MBq/nmol): 2.12 %IS/g | R. tumor PM PET tissue signal ([2]; subject 2, 5 MBq/nmol): 0.41 %IS/g | Kidney PM PET tissue signal ([2]; subject 3, 5 MBq/nmol): 1.76 %IS/g | L. tumor PM PET tissue signal ([2]; subject 3, 5 MBq/nmol): 0.68 %IS/g | Liver PM PET tissue signal ([2]; subject 3, 5 MBq/nmol): 0.25 %IS/g | Lung PM PET tissue signal ([2]; subject 3, 5 MBq/nmol): 0.08 %IS/g | Muscle PM PET tissue signal ([2]; subject 3, 5 MBq/nmol): 0.06 %IS/g | Pancreas PM PET tissue signal ([2]; subject 3, 5 MBq/nmol): 2.56 %IS/g | R. tumor PM PET tissue signal ([2]; subject 3, 5 MBq/nmol): 0.44 %IS/g | Kidney PM PET tissue signal ([2]; subject 4, 5 MBq/nmol): 1.15 %IS/g | L. tumor PM PET tissue signal ([2]; subject 4, 5 MBq/nmol): 0.24 %IS/g | Liver PM PET tissue signal ([2]; subject 4, 5 MBq/nmol): 0.12 %IS/g | Lung PM PET tissue signal ([2]; subject 4, 5 MBq/nmol): 0.04 %IS/g | Muscle PM PET tissue signal ([2]; subject 4, 5 MBq/nmol): 0.06 %IS/g | Pancreas PM PET tissue signal ([2]; subject 4, 5 MBq/nmol): 2.26 %IS/g | R. tumor PM PET tissue signal ([2]; subject 4, 5 MBq/nmol): 0.18 %IS/g | Kidney PM PET tissue signal ([2]; subject 5, 2.5 MBq/nmol): 1.12 %IS/g | L. tumor PM PET tissue signal ([2]; subject 5, 2.5 MBq/nmol): 0.29 %IS/g | Liver PM PET tissue signal ([2]; subject 5, 2.5 MBq/nmol): 0.20 %IS/g | Muscle PM PET tissue signal ([2]; subject 5, 2.5 MBq/nmol): 0.04 %IS/g | Pancreas PM PET tissue signal ([2]; subject 5, 2.5 MBq/nmol): 0.76 %IS/g | R. tumor PM PET tissue signal ([2]; subject 5, 2.5 MBq/nmol): 0.28 %IS/g | Kidney PM PET tissue signal ([2]; subject 6, 2.5 MBq/nmol): 1.35 %IS/g | L. tumor PM PET tissue signal ([2]; subject 6, 2.5 MBq/nmol): 0.17 %IS/g | Liver PM PET tissue signal ([2]; subject 6, 2.5 MBq/nmol): 0.23 %IS/g | Lung PM PET tissue signal ([2]; subject 6, 2.5 MBq/nmol): 0.08 %IS/g | Muscle PM PET tissue signal ([2]; subject 6, 2.5 MBq/nmol): 0.03 %IS/g | Pancreas PM PET tissue signal ([2]; subject 6, 2.5 MBq/nmol): 1.71 %IS/g | R. tumor PM PET tissue signal ([2]; subject 6, 2.5 MBq/nmol): 0.07 %IS/g | Kidney PM PET tissue signal ([2]; subject 7, 2.5 MBq/nmol): 0.97 %IS/g | L. tumor PM PET tissue signal ([2]; subject 7, 2.5 MBq/nmol): 0.18 %IS/g | Liver PM PET tissue signal ([2]; subject 7, 2.5 MBq/nmol): 0.17 %IS/g | Lung PM PET tissue signal ([2]; subject 7, 2.5 MBq/nmol): 0.08 %IS/g | Muscle PM PET tissue signal ([2]; subject 7, 2.5 MBq/nmol): 0.03 %IS/g | Pancreas PM PET tissue signal ([2]; subject 7, 2.5 MBq/nmol): 0.88 %IS/g | R. tumor PM PET tissue signal ([2]; subject 7, 2.5 MBq/nmol): 0.19 %IS/g | Kidney PM PET tissue signal ([2]; subject 8, 2.5 MBq/nmol): 1.18 %IS/g | L. tumor PM PET tissue signal ([2]; subject 8, 2.5 MBq/nmol): 0.18 %IS/g | Liver PM PET tissue signal ([2]; subject 8, 2.5 MBq/nmol): 0.15 %IS/g | Lung PM PET tissue signal ([2]; subject 8, 2.5 MBq/nmol): 0.04 %IS/g | Muscle PM PET tissue signal ([2]; subject 8, 2.5 MBq/nmol): 0.03 %IS/g | Pancreas PM PET tissue signal ([2]; subject 8, 2.5 MBq/nmol): 0.82 %IS/g | R. tumor PM PET tissue signal ([2]; subject 8, 2.5 MBq/nmol): 0.18 %IS/g | Tumor ex-vivo well counter ([3]; 2.5MBq/nmol): 3.7 ±1.3 %ID/g | Tumor ex-vivo well counter ([3]; 5MBq/nmol): 6.3 ±2.3 %ID/g | Liver tissue accumulation, ex vivo biodistribution ([3]; 16 h after i.v. injection, gamma counter): 3 %ID/g | Pancreas tissue accumulation, ex vivo biodistribution ([3]; 16 h after i.v. injection, high specific activity (5.0 MBq/nmol, 0.5 nmol injected), n = 4, gamma counter): 13 % ID/g
